According to patent EP2379590B1 (Development Center for Biotechnology, dated 2018):

Assays:
Assay in all cases: cell-based or functional assay
[1] = target: glycoprotein D of HSV-1 KOS, on infectious virus (HSV-1 (KOS strain), UniProt A1Z0Q5 26-394)
[2] = target: glycoprotein D of HSV-2 00040 (clinical strain), on infectious virus (HSV-2 (clinical strain 00040))
[3] = target: glycoprotein D of HSV-2 186, on infectious virus (HSV-2 (strain 186))
[4] = target: glycoprotein D of HSV-1 00410 (clinical strain), on infectious virus (HSV-1 (clinical strain 00410))

Chain of glycoprotein D of HSV-1 KOS, on infectious virus (A1Z0Q5 26-394 limits assumed): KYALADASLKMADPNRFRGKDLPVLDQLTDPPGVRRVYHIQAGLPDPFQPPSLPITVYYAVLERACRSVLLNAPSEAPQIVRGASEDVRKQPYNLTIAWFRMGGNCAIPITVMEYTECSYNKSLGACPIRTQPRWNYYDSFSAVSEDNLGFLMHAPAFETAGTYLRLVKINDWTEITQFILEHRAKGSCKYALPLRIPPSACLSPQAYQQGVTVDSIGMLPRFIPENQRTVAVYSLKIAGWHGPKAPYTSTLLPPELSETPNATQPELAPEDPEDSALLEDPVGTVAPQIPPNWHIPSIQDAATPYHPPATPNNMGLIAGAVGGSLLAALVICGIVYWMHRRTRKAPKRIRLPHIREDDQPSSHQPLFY

B1: scFv E425 (scFv, not shown: small tags and cut ends)
scFv: QVQLQQSGAGVKKPGSSVRVSCSASGGTLRTYALSWVRQVPGQGFEWMGRIIPMFGKTDYAQKFQGRLSITADKSMDTGFMELTSLTSEDTAVYYCARDLTTLTSYNWLDIWGQGTLVTVSSGGGGSGGGGSGGGGSETTLTQSPGTLSLSPGERATLSCRASQSVSSNYLAWYQKKPGQAPRLLIYGASSRATGIPDRFSGSGSGTDFTLTINRLEPEDFAVYYCQQYGRSPTFGQGTKVEIKR
IC50, plaque reduction assay in Vero cells (HSV-1 KOS) [1]: 2.2 nM
IC50, plaque reduction assay in Vero cells (HSV-2 00040) [2]: 1.16 nM
IC50, plaque reduction assay in Vero cells (HSV-2 186) [3]: 4.5 nM
IC50, plaque reduction assay in Vero cells (HSV-1 00410) [4]: 1.8 nM
